Results on 2 molecules are retold here after article PMC3626232 (The Journal of biological chemistry, 2000).

Data set [1] deals with the molecule itself. Nature of the data set: SEC. (SEC sorts molecules by how far they enter the pores of the column.)
In data set [2] the target is XMcm(2+4+6+7) tetramer (Xenopus (endogenous in Xenopus egg …, UniProt P55861 1-886; P30664 1-863; Q5FWY4 1-821; Q91876 1-720). In words: SEC.
Sequence of XMcm(2+4+6+7) tetramer (Xenopus (P30664 whole entry, chain 2 of 2): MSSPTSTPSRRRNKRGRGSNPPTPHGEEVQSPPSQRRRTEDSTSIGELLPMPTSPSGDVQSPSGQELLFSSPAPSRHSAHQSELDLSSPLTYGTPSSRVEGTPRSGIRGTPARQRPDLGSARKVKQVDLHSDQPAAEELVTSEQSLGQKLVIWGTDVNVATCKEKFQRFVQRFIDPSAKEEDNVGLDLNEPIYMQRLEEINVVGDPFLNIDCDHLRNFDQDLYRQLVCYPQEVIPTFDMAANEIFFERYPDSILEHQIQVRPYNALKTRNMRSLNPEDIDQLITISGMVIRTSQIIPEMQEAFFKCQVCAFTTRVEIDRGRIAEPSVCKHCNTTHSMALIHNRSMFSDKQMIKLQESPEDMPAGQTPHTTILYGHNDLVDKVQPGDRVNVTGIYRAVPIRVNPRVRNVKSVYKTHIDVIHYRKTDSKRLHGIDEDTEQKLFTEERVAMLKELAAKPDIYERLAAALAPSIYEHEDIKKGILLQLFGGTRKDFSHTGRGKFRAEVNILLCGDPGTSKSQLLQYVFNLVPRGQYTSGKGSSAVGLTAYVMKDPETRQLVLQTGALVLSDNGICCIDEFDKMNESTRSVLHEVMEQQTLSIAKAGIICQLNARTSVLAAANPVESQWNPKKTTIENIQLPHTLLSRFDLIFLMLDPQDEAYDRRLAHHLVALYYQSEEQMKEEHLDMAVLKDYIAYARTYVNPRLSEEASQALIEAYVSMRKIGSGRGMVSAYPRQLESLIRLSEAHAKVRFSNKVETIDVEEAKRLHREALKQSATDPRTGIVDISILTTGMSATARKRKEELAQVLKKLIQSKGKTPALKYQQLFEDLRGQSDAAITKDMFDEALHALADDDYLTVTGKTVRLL
Sequence of XMcm(2+4+6+7) tetramer (Xenopus (Q5FWY4 whole entry, chain 3 of 2): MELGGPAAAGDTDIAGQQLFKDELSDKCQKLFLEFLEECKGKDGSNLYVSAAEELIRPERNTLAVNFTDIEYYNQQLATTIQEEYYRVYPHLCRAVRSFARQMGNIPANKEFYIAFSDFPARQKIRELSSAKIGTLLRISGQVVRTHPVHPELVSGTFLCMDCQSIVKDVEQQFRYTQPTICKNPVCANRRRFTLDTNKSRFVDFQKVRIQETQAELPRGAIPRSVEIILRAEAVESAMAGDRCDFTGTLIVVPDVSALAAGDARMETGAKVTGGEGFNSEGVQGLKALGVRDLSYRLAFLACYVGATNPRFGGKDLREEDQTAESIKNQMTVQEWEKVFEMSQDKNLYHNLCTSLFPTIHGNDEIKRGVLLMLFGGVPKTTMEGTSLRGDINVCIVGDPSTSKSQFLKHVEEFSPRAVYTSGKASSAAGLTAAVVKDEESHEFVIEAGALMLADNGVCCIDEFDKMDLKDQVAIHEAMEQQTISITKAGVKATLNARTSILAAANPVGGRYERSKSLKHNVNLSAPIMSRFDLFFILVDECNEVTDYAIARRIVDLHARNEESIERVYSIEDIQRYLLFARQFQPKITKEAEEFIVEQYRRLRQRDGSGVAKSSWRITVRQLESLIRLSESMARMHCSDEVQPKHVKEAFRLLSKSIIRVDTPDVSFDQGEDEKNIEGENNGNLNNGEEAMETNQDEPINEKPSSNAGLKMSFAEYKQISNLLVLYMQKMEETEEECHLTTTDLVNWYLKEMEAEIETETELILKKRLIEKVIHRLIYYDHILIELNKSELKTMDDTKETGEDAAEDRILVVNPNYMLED

B1: XMcm2 (natural protein, UniProt P55861 1-886, looked up)
chain: MADSSESFNIATSPRAGSRRDALTSSPGRDLPPFEDESEGMFGDGVVPEEEEDGEELIGDAMERDYRPISELDRYEVEGLDDEEDVEDLTASQREAAEQSMRMRDREMGRELGRMRRGLLYDSDEEEEDRPARKRRMAERAAEGAPEEDEEMIESIENLEDMKGHTVREWVSMAATRLEIYHRFKNFLRTHVDEHGHNVFKEKISDMCKENKESLPVNYEDLAAREHVLAYFLPEAPAEMLKIFDEAAKEVVLVMYPKYDRIAREIHVRISHLPLVEELRSLRQLHLNQLIRTSGVVTCCTGVLPQLSMVKYNCNKCNFILGPFFQSQNQEVRPGSCPECQSFGPFEINMEETVYQNYQRITIQESPGKVAAGRLPRSKDAILLADLVDSCKPGDEIELTGIYHNNYDGSLNTANGFPVFATVILANHITKKDDKVAVGELTDEDVKAIVALSKDERIGERIFASIAPSIYGHEDIKRGLALALFGGEAKNPGGKHKVRGDINVLLCGDPGTAKSQFLKYVEKVASRAVFTTGQGASAVGLTAYVQRHPVTKEWTLEAGALVLADRGVCLIDEFDKMNDQDRTSIHEAMEQQSISISKAGIVTSLQARCTVIAASNPIGGRYDPSLTFSENVDLTEPIVSRFDILCVVRDTVDPVQDEMLARFVVSSHIKHHPSSKDIANGDAAEFALPNTFGVEALPQEVLKKYIMYAKEKIRPKLNQMDQDKVAKMYSDLRKESMATGSIPITVRHIESMIRMAEAHARMHLRDYVVEDDVNMAIRVMLESFIDTQKFSVMRSMRKTFARYLAFRRDNNELLLFVLKQLIAEQVTYQRNRYGAQQDTIEVPEKDLVDKARQINIHNLSAFYDSDLFKMNKFTHDVKKKLIIQQF
In the case of B1, the stoichiometry N (usually the number of molecules, sites or subunits per partner or assembly) in data set [1] is 2.

B2: XMcm(3+7) hetero-dimer (complex)
chain 1: MDYGGGFEDHELREAQREYLDFLDDDQDQGLYHGKVRDMIGSNEHRLIVNLNDVRRKNDKRANLMLNDAFAETIAFQRALKDLVASIDATYAKQFEEFSVGFEGSFGSKHVSPRTLTASLLGSLVCVEGIVTKCSLVRPKVMRSVHYCPATKKTLERKYSDLTSLEAFPSSSIYPTKDEENNPLETEYGLSTYKDHQTLSIQEMPEKAPAGQLPRSVDIIADDDLVDKCKPGDRVQIVGIYRCLPSKQGGFTSGTFRTILLANNIKLMSKEIAPTFSADDVAKIKKFCKAHSKDIFEHLSKSLAPSIHGHEYIKKAILCMLLGGNEKVLENGTRIRGDINVLLIGDPSVAKSQLLRYVLHTAPRAIPTTGRGSSGVGLTAAVTTDQETGERRLEAGAMVLADRGVVCIDEFDKMSDMDRTAIHEVMEQGRVTIAKAGIQARLNARCSVLAAANPVYGRYDQYRTPMENIGLQDSLLSRFDLLFIVLDKMDADNDQEIADHVLRMHRYRTPGEQDGYALPLGCSVEIFATDDPNASDVTDQELQIYEKHDNLLHGPRKNKSKIVSMQFIRKYIHVAKLIKPVLTSEAADYISQEYAKIRNHDQINNDSARTMPVTARALETMIRLSTAHAKVRMSKTIERQDAETALELVQFAYFKKVLAKEKKKTDKDLHDENLSQDTLSQESVRKSSRRAGKIADSQDDSMDPYSFSEQDSSLNENLSQSLRPQRKKAESQDGKRSLSQNRTKEFKAALLKAFKSSRSQSVAVSQLLELINKGNPEPFERSEVKEALDNMQNDNQVMVSEDVVFLI
chain 2: MPRDYQTEKEKCKTFLQEFYKDDEIGKKHFKYGVQLANIAHREQVALYIDLDDLAEEDPELVDAICENTRRYTNLFADAVQELLPQYKEREVVHKDALDVYIEHRLMMEQRGRDPNEMRDSQNQYPPELMRRFELYFKAPSSSKARVVRDVKADSIGKLVNIRGIVTRVTEVKPMMVVATYTCDQCGAETYQPIQSPTFMPLIMCPSRECQTNRSGGRLYLQTRGSKFIKFQELKIQEHSDQVPVGNIPRCMSVYVRGENTRLAQPGDHVGITGVFLPMLRTGFRQVVQGLLSETYLECHRLVKMNKSEDDELGTEELSEEELRQITEEDFYEKLAASIAPEIYGHEDVKKALLLLLVGGVDNSPRGMKIRGNINICLMGDPGVAKSQLLSYIDRLAPRSQYTTGRGSSGVGLTAAVMKDPVTGEMTLEGGALVLADQGVCCIDEFDKMMDTDRTAIHEVMEQQTISIAKAGIMTTLNARCSILAAANPAYGRYNPKKTVEQNIQLPAALLSRFDVLWLIQDKPDRDNDLRLAQHITYVHQHSKQPPSQFQPLDMKLMRRYITMCKRKQPAIPEALADYLTAAYVEMRKEARTNKDMTFTSARTLLSVLRLSTALARLRLEDVVEKEDVNEAMRLMEMSKDSLLGDKGHTSRTQRPADVIFSTIREMVPEKGARSVKYSEAEQRCVSKGFTPAQFEAALEEYEELNVWLVNQARTKITFV
B2: the binding result in data set [2] is on record as “binds”.
